Data on three molecules can be found in article PMC8056888 (Journal of Applied Glycoscience, 2017).

Data set [1] has as its system Foagl1. To be noted: conditions not stated for this substrate.
Substrate in data set [2]: CO[C@H]1O[C@H](CO)[C@@H](O)[C@H](O)[C@H]1O
Kind of data set: purified protein. To be noted: conditions not stated for this substrate.

Substrate in data set [3]: O=[N+]([O-])c1ccc(O[C@H]2O[C@H](CO)[C@@H](O)[C@H](O)[C@H]2O)cc1
Kind of data set: purified protein. To be noted: pH 6.0, sodium phosphate, 30 °C.

On to `CO[C@H]1O[C@H](CO)[C@@H](O)[C@H](O)[C@H]1O` [α-MG], for which the Michaelis-Menten constant (Km) (commonly the concentration of substrate that gives half-maximal velocity) in data set [1] is 24.3 mM.

B1: AgdC (Aspergillus niger CBS 513.88) (protein)
chain: MAKSASQIHRAWWKECSVYQIWPASYKDSNDDGIGDIPGIISKLDYIKNIGVDIVWLCPSYKSPQVDMGYDIADYYSIADEYGTVADVEKLIQGCHERGMKLLMDLVVNHTSDQNEWFKQSRSSKDNKYRNWYVWKPARYDEQGNRHPPNNWVSHFQGSAWEWDEHTGEYYLHLYATEQPDLNWEHPPVRKAVHDIMRFWLDKGADGFRMDVINFISKDQRFPDAPVKDPRTPWQWGDKYYANGPRLHEYLQDLGKILKEYDAFSVGEMPFVRDTEEVLRAVRYDRNEINMIFNFEHVDIDHGTYDKFEPGSWKLTDLKAFFETWQKFMYNNDGWNALYWENHDQPRSIDRYAQAKEEFRTEAGKMLATVLALQSGTPFVYQGQEIGMRNVPVEWDMNEYKDIDCLNHWHRLLKHRPDDIEAQKSARQEYQKKSRDNGRTPVQWSSAPNGGFTGPNAKPWMSVSPDYVRFNAEAQVNDPNSIYHYWAAVLGLRKKYLDIFVYGDYDLVDKDSQEIFAYARQYENKKALVLTNWTEKTLEWDATTNGVKGVKDVLLNSYESAEAAKGRFSGQKWSLRPYEAVVLLVEA
Take B1: in data set [2], the Km worked out at 32.8 mM; the kcat (commonly the number of substrate molecules converted per active site and unit of time at saturation) turned out to be 5.0 s⁻¹. Moreover, in data set [3], the Km came out at 7.8 mM and the kcat was determined as 19.8 s⁻¹.

B2: Agl1 (Aspergillus oryzae RIB40) (protein)
chain: MATPGNQNHRAWWKESSVYQIWPCSFKDSNDDGIGDIPGIISKLDHIKNLGIDIVWLCPSYKSPQVDMGYDIADYYDIAPEYGTVADVEKLIKGCHERGMKLLMDLVVNHTSDQHEWFKQSRSSKDNEYRNWYIWKPARYDEQGNRQPPNNWVSHFQGSAWEWDEHTQEYYLHLYATEQPDLNWEHPPVRKAVHDIMRFWLDKGANGFRMDVINFISKDQRFPDAPIKDPRTPWQWGDKYYANGPRLHEYFQELGKILKEYDTFSVGEMPFVTDTEEVLRAVKYDRNELNMIFNFEHVDIDHGKYDKFEPGSWELTDLKFFFERWQKFMYENDGWNALYWENHDQPRSVDRYTNAKEEDRVIASKMLATILALKAGSPFVYQGQEIGMGNVPPEWDIEEYKDIDCLNHWKRLPNDPEIQKIARQEYQKKSRDNGRTPVQWTNAPNAGFTSPNVKPWMSVNPNYARGINAEAQVNDPNSTYSYWASVLGLRKKYVDIFVYGNYELVDRDSQEIFAYTRQYEDQKALVLANWTDGTLEWDSSSNGVKAVKDVLLNTYDSASDVKERFSGSKWSLRPYEAVVLLIEA
As for B2, the Km in data set [2] is on record as 31.3 mM. In data set [3], the Km stood at 8.3 mM; the kcat is 17.5 s⁻¹; the kcat/Km – broadly, the turnover number divided by the Michaelis constant – amounted to 2120 M⁻¹ s⁻¹.
